From patent US6881827B2, “Molecular cloning of a 7TM receptor (AXOR34) and screening methods thereof” (SmithKline Beecham Corporation, priority 1999, dated 2005)

target: T1, AXOR34 (Homo sapiens, UniProt Q9GZQ4); assay: FLIPR calcium mobilization assay in HEK-293 cells transiently transfected with AXOR34; type: cell-based; conditions: ligand concentrations 1 μM-0.1 nM
T1 construct: expressed in transfected cells; host or cells: HEK-293 cells, transient transfection (pCDN vector as the empty-vector control)
Source text: There was no concentration-dependent activity for pCDNs or untransfected cells.

T1 sequence (Q9GZQ4 whole entry): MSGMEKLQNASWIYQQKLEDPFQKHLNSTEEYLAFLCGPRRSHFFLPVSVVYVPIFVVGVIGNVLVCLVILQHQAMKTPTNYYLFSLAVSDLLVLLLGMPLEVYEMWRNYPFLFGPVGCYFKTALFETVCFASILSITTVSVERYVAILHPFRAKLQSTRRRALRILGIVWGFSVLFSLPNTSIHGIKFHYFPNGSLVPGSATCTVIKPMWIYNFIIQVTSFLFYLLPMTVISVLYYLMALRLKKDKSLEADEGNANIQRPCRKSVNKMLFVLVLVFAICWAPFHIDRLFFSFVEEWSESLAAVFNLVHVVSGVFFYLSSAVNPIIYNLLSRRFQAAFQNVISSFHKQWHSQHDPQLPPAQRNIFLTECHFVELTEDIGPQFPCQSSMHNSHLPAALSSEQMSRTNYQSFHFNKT

Calcium mobilization response, robust calcium mobilization responses:
porcine Neuromedin U-8 [porcine NmU-8], porcine Neuromedin U-25 (FLVDEEFQGPIVSQNRRYFLFRPRN; HOMO SAPIENS) [porcine NmU-25], rat Neuromedin U-23 (YKVNEYQGPVAPSGGFFLFRPRN; HOMO SAPIENS) [rat NmU-23]
